Measurements reported in patent publication US20220017620A1 (SHANGHAI FUDAN ZHANGJIANG BIO PHARMACEUTICAL, published 2022).
One block for each binder: values may come before it.

Tests used:
antigen B7-H3 (R&D) = molecular target: T1, antigen B7-H3 (R&D); experiment: ELISA on coated B7-H3
T1 construct: construct not described; also called B7-H3 protein; coated B7-H3 protein
T1 sequence (Q5ZPR3 whole entry, species assumed, looked up): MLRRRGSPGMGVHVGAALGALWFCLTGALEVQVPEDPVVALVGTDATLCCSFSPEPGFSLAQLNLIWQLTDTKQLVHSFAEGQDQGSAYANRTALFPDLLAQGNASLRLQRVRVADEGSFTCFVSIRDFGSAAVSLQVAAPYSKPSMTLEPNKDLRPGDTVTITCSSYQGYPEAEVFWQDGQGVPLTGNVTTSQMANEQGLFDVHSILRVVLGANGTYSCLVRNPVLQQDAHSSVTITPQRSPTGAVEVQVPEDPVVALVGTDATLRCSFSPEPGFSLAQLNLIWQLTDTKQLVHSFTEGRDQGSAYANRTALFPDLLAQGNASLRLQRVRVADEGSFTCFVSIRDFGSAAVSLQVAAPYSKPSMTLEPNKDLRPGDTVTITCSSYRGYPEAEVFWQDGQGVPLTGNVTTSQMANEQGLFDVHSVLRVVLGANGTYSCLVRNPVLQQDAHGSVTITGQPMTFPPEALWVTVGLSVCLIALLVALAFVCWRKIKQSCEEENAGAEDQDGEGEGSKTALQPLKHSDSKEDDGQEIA
Description: (§1) Protein binding: 100 μL of antigen B7-H3 (R&D) at 20 ng/ml was coated onto microplate, incubated at 2-8° C. overnight. Subsequently, 100 μL of the prepared full-length IgG1 antibody described above was added with a total of 8 concentrations started from 2000 ng/ml and serially diluted with 3-fold, incubating at 37° C., 600 rpm for 1 hour. After the plate was washed for three times, Goat anti human IgG (Fc)-HRP enzyme-linked antibody was added and the plate was shook at 37° C. and 600 rpm for 1 hour. After the plate was washed for 4 times, TMB chromogenic solution was aliquoted in and incubated for 10 minutes, then 1 mol/L […] stop solution at 100 μL/well was aliquoted to stop the reaction and the absorbance was measured.

IgV domain of B7-H3 [1] = molecular target: T2, IgV domain of B7-H3 (human, UniProt Q5ZPR3 30-130); experiment: ELISA on coated antigen, IgG1 antibody
T2 sequence: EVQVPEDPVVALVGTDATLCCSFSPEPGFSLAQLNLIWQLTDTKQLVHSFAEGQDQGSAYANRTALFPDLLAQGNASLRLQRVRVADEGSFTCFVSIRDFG
Description: as §1

IgC domain of B7-H3 = molecular target: T3, IgC domain of B7-H3 (human, UniProt Q5ZPR3 141-242); experiment: ELISA on coated antigen, IgG1 antibody
T3 sequence: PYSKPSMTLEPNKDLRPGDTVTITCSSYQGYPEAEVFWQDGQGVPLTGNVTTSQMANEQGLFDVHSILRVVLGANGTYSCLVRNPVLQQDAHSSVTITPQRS
Description: as §1

[2] = molecular target: T4, 2Ig B7-H3 (soluble human B7-H3 with 217 amino acids) (human, UniProt Q5ZPR3 29-463); experiment: ELISA on coated antigen, IgG1 antibody
T4 construct: also called 2IgB7-H3 domain
T4 sequence: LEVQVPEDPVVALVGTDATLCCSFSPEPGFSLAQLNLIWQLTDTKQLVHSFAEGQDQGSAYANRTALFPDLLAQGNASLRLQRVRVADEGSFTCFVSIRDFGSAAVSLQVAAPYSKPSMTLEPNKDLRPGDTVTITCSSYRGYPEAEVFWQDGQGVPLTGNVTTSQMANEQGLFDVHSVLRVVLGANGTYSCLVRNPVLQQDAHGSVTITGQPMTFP
Description: as §1

IgV domain of B7-H3 [3] = molecular target: T2, IgV domain of B7-H3; experiment: ELISA on B7-H3 domains, IgG1 antibody
Description: as §1

[4] = molecular target: T5, 4Ig B7-H3 (soluble human B7-H3 protein with 435 amino acids) (human, UniProt Q5ZPR3 27-461, limits assumed); experiment: SPR, BIAcore T200, antibody amine-coupled to the chip, antigen as analyte, 1:1 Langmuir fit
T5 construct: also called 4Ig-B7H3 antigen; B7H3/4Ig
T5 sequence: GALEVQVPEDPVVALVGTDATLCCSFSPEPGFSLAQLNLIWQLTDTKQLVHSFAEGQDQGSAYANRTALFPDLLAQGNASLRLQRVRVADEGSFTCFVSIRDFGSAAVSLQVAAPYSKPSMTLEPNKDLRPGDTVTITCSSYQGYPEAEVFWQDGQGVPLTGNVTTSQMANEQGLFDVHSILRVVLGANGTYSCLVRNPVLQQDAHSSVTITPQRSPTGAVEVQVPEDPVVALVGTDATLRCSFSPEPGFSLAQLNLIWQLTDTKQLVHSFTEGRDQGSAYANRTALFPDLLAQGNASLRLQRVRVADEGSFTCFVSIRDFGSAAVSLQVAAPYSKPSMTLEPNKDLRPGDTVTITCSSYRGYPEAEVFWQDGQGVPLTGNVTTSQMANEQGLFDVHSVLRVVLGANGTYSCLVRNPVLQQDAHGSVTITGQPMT
Description: SPR detection was performed with BIAcore T200 (GE) system. Series Sensor Chip CMS and the amine coupling kit for immobilization were purchased from GE.
The B7-H3 antigen was diluted with HBS-EP buffer in a certain proportion to concentration gradients of 0 nM, 0.15625 nM, 0.3125 nM, 0.625 nM, 1.25 nM (two replicates), 2.5 nM, 5 nM, 10 nM, 20 nM, the flow rate was set to 30 μL/min, the binding time was set to 120 s, and the dissociation time was set to 1800 s for sample analysis. For regeneration, Gly-HCl buffer (pH 1.5) could be used as a regeneration buffer, the flow rate was set to 30 μL/min, and regeneration was performed for 30 s. The experiment adopted multi-cycle operation, for the response signal, the analysis time was set as the abscissa and the response value was set as the ordinate. The obtained data was fitted by BIAcore T200 analysis software. The fitting model used was 1:1 Langmuir binding model, and the kinetic constants such as the binding rate constant, the dissociation rate constant, and the binding and dissociation constant were determined.

[5] = molecular target: T5, 4Ig B7-H3 (soluble human B7-H3 protein …); experiment: ELISA on coated antigen, IgG1 antibody
Description: as §1

[6] = molecular target: T6, B7-H3 on B7-H3 transfected CHO cells; experiment: cell-based ELISA on B7-H3 transfected CHO-K1 cells
T6 construct: whole, on cells; also called CHO cells transfected with B7-H3
T6 sequence (Q5ZPR3 1-534, species assumed, looked up): T1 sequence (Q5ZPR3 whole entry, species assumed, looked up)

EC50 (read off the curve) (antigen B7-H3 (R&D)): ~0.1 µg/mL
ELISA signal value (IgV domain of B7-H3 [1]): 1.6 to 3 elisasignalvalue
B1: P3H6 full-length IgG1 antibody (antibody, V domains shown)
VH: QVQLVQSGAEVKKPGESLKISCKGSGYSFSNYWIGWVRQMPGKGLEWMGIIYPGDSDTRYSPSFQGQVTISADKSISTAYLQWSSLKASDTAMYYCARSRGYPTNYMDVWGRGTTVTVSS
VL: QAVLTQPPSVSGAPRQRVTISCSGSSSNIGNNIVSWYQHLPGKAPRLLIYRERQRPSGVPDRFSGSKSGTSASLAISGLRSEDEADYYCATWDDSLNSWVFGGGTKLTVL

ELISA signal value (IgC domain of B7-H3): 0.6 to 1.5 elisasignalvalue
ELISA signal value [2]: 1.6 to 3 elisasignalvalue
Kd [4]: 0.0248 nM
koff [4]: 7.76e-05 s⁻¹
kon [4]: 3.13e+06 M⁻¹ s⁻¹
B2: P1E11 full-length IgG1 antibody (antibody, V domains shown)
VH: not shown
VL: EIVLTQSPLSLPVTLGQPASISCRSSQSLVHSDGNTYLNWFQQRPGQSPRRLIYKVSNRDSGVPDRFSGSGSGTDFTLKISRVEAEDVGFYYCMQGTHWPPGTFGQGTKLEIK
notes: also called biotin-P1E11
binding result (IgV domain of B7-H3 [3]): no binding (tested: ELISA signal value 0.1~0.2)

ELISA signal value (IgC domain of B7-H3): 0.3 to 0.5 elisasignalvalue
ELISA signal value (IgV domain of B7-H3 [1]): 0.3 to 0.5 elisasignalvalue
ELISA signal value [5]: 1.6 to 3 elisasignalvalue
ELISA signal value [2]: 0.6 to 1.5 elisasignalvalue
Kd [4]: 0.23 nM
koff [4]: 0.00167 s⁻¹
kon [4]: 7.26e+06 M⁻¹ s⁻¹
B3: P1G2 full-length IgG1 antibody (antibody, V domains shown)
VH: QVQLQQSGAEVKKPGSSVKVSCKASGGTFSSYAISWVRQAPGQGLEWMGRIIPILGIANYAQKFQGRVTITADKSTSTAYMELSSLRSEDTAVYYCAVNYYDSSGYYSDYWGQGTLVTVSS
VL: SYELTQPPSASGSPGQSVTISCTGTSSDVGGYNYVSWYQQHPGKAPRLMIYGVSQRPSGVPDRFSGSKSGNTASLTVSGLQAEDEADYYCSSYANNNYVFGTGTKVTVL

ELISA signal value (IgC domain of B7-H3): 0.3 to 0.5 elisasignalvalue
ELISA signal value (IgV domain of B7-H3 [1]): 0.3 to 0.5 elisasignalvalue
ELISA signal value [5]: 0.6 to 1.5 elisasignalvalue
ELISA signal value [2]: 0.3 to 0.5 elisasignalvalue
Kd [4]: 2.4 nM
koff [4]: 5.9e-05 s⁻¹
kon [4]: 42500 M⁻¹ s⁻¹
EC50 (read off the curve) [6]: ~0.02 µg/mL
B4: P2E5 full-length IgG1 antibody (antibody, V domains shown)
VH: QVTLKESGGGLVQPGGSLRLSCAASGFTFSNSYMTWVRQAPGMGLEWVASMKPDGSVKHYVDSVKGRFTISRDNTKNSLDLQMNSLRAEDTAVYYCSSYDTRWGWFDPWGEGTLVTVSS
VL: QTVVTQEPSFSVSPGGTVTLTCGLNSGSVSTSYFPSWYQQTPGQAPRTLIYNTNTRSSGVPDRFSGSILGNKAALTITGAQADDESDYYCLLYMDSGPHWVFGGGTKLTVL
notes: also called biotin-P2E5
